Laboratory results reported in patent publication US20200157151A1, “PEPTIDE COMPOUNDS, CONJUGATE COMPOUNDS AND USES THEREOF FOR TREATING INFLAMMATORY DISEASES” (TRANSFERT PLUS, S.E.C., priority 2017, published 2020).
Square brackets hold non-standard residues; d marks the D form. Ends that are not written are not given here. Nle = CCCC[C@H](N)C(=O)O

Molecular target: Human recombinant Sortilin chimera protein from R&D Systems (#3154-ST) (human), Q99523
Assay: SPR (Biacore), Sortilin immobilized on CM5 chip, peptide injected

Chain of Human recombinant Sortilin chimera protein from R&D Systems (#3154-ST) (human), Q99523 (Q99523 78-755, change not shown): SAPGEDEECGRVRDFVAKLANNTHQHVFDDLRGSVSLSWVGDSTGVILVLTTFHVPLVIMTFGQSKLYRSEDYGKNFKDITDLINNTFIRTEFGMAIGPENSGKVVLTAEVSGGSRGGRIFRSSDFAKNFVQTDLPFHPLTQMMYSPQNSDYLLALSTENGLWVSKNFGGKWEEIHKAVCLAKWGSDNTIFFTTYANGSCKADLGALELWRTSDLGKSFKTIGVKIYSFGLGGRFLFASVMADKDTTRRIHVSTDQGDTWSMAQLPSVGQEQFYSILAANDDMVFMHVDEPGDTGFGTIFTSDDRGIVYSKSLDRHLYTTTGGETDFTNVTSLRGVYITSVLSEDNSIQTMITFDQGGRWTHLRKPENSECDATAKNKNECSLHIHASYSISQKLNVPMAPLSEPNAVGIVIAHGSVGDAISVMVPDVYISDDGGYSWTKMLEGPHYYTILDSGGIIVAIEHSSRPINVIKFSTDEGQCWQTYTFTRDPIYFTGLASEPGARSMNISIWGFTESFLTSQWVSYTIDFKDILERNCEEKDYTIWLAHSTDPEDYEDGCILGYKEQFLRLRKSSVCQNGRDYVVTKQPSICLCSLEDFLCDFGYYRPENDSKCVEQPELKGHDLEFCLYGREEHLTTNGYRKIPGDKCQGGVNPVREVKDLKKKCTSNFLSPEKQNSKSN

B1: KBP-201 (peptide)
peptide: YKSLRRKAPRWDAPLRDPALRQLL
modifications: not checked
**Q.** How did the Kd turn out when B1 was run?
**A.** Its Kd is 3.3 nM.

B2: KBP-106 (peptide)
peptide: Ac-GVRAKAGVRN[Nle]FKSESY
**Q.** How did the Kd turn out when B2 was run?
**A.** Its Kd is 46 nM.
